Tests used:
Notch1(11-12) EGF11-12 = biological target: T1, Notch1(11-12) EGF11-12 (Rattus norvegicus, UniProt Q07008); assay: SPR
T1 chain: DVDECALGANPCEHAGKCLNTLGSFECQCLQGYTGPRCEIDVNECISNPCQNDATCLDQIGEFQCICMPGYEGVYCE

Notch1(8-12) EGF8-12 = biological target: T2, Notch1(8-12) EGF8-12 (Rattus norvegicus, UniProt Q07008); assay: SPR
T2 chain: LLCLT

B1: DLL4(N-3) N-EGF3 (protein)
chain: SGIFQLRLQEFANERGMLANGRPCEPGCRTFFRICLKHYQATFSEGPCTFGNVSTPVLGTNSFVIRDKNSGSGRNPLQLPFNFTWPGTFSLNIQAWHTPGDDLRPETSPGNSLISQIIIQGSLAVGKNWKSDEQNNTLTRLRYSYRVVCSDNYYGDSCSRLCKKRDDHFGHYECQPDGSLSCLPGWTGKYCDQPICLSGCHEQNGYCSKPDECNCRPGWQGPLCNECIPHNGCRHGTCTIPWQCACDEGWGGLFCDQDLNYCTHHSPCKNGSTCSNSGPRGYTCTCLPGYTGEHCE
B1 showed a Kd (Notch1(11-12) EGF11-12) of 12.8 µM and a Kd (Notch1(8-12) EGF8-12) of 9.7 µM.

Source: paper PMC5459593 (2017)
